Experiment [1] concerns the target protease fragment Bb of factor B (from recombinant FB) (human, UniProt P00751 260-764). In words: crystal structure.
For experiment [2], the target named is protease fragment Bb of factor B (from plasma-purified FB) (human, UniProt P00751 260-764). In words: pull-down.
Sequence of protease fragment Bb of factor B (from plasma-purified FB) (P00751 260-764): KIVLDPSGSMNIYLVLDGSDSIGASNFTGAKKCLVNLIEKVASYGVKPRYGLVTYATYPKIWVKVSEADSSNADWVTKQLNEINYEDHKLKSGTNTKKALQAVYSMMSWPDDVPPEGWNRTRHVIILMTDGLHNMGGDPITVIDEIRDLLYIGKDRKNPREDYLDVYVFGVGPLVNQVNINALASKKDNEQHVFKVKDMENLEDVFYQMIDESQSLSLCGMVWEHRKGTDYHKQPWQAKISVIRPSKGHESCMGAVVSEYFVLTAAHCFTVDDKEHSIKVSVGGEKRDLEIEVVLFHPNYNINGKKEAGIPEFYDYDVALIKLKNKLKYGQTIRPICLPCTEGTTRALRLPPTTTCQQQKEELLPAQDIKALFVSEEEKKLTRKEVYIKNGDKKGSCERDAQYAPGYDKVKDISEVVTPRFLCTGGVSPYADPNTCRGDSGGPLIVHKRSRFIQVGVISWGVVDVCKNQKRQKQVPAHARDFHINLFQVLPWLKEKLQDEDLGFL

Sequence of protease fragment Bb of factor B (from recombinant FB) (P00751 260-764): as above

B1: SCIN protein with an N-terminal His6 tag (natural protein, Staphylococcus aureus)
chain: STSLPTSNEYQNEKLANELKSLLDELNVNELATGSLNTYYKRTIKISGQKAMYALKSKDFKKMSEAKYQLQKIYNEIDEALKSKY
Consider B1, for which the binding result in experiment [1] and in experiment [2] was “binds” in each case.

These data come from paper PMC2729104 (Nature immunology, 2009).
